From patent US12018068B2, “Anti-O1 antibodies and uses thereof” (priority 2016, dated 2024) come the findings set out here.

One experiment has as its system LPS. Nature of the experiment: endotoxemia LPS-induced sepsis model, survival. The settings on record: 1 mg/kg or 5 mg/kg, 24 hours prior to LPS, vs control IgG (R347). It is filed as in vivo, Balb/c mice. How it is done:
In order to determine the protective effect of anti-O1 antigen antibodies, female mice (Balb/c), aged 6-8 weeks, were sensitized with D-galactose (D-Gal, 12 mg/kg), and subsequently challenged intraperitoneally (ip) with 10-50 ng of LPS 24 hours after anti-O1 antigen antibody administration. Antibody was administered at doses of 0.2 mg/kg, 1 mg/kg, or 5 mg/kg. Mouse survival was monitored up to 6 days post LPS challenge.

Experiment [1] deals with highly virulent strain Kp43816 (O1). Nature of the experiment: acute pneumonia model with Kp43816, prophylactic dosing, survival. It is filed as in vivo, Klebsiella pneumoniae. The settings on record: 15 mpk, 24 hour prior to challenge. The protocol:
In order to determine the efficacy of anti-O1 antigen antibodies in combination with antibiotics, 54H7 was tested in an acute pneumonia models. C57BL/6 mice were inoculated intranasally with 1e4 CFU of highly virulent strain Kp43816 (O1). Anti-K. pneumoniae monoclonal antibody 54H7 at 15 mg/kg and human IgG1 control antibody at 15 mg/kg were given 24 hour prior bacterial challenge (prophylatic dosing). Mouse survival was monitored daily until up to day 14.

Experiment [2] has as its system Kp43816 LPS and Kp15380 LPS. Nature of the experiment: serum cytokines after LPS challenge (MSD kit). The settings on record: 3 hours after challenge with Kp43816 LPS and Kp15380 LPS. It is filed as in vivo, C57BL/6 mice. How it is done:
In order to determine the effect of anti-O1 antigen antibodies on serum cytokines after LPS challenge, C57BL/6 mice were challenged with 0.3 mg/kg LPS intraperitoneally 24 hours after anti-O1 administration. 3 hours later, animals were sacrificed, and serum cytokines were measured using a Meso Scale Discovery (MSD) proinflammatory cytokine kit based on manufacturer's instruction. Polymyxin B (PMB) was used as a positive control. Serum IL-6, TNF-alpha, and CXCL1 concentration were plotted in Prism.

The next experiment deals with Kp8045 Klebsiella. Kind of experiment: pneumonia model, KPE33 synergy with meropenem. It is filed as in vivo, Klebsiella pneumoniae. The settings on record: antibody 1 mpk, meropenem 2.5 mpk, post challenge. The protocol:
(§1) The synergy of anti-O1 antigen antibodies and antibiotic was also assessed in the pneumonia and bacteremia mouse models.
(§2) In the pneumonia experiments, C57BL/6 mice were inoculated intranasally with 1e4 to 1e8 CFU of the Kp8045 Klebsiella. (See FIG. 4A.) In the bacteremia experiments, mice were inoculated with Kp8561 Klebsiella. (See FIG. 4B.) Both sub-therapeutic dosage of antibodies (1 mpk for Kp8045 and 2.5 mpk for Kp8561) and meropenem antibiotic (2.5 mpk for Kp8045 and 5 mpk for Kp8561) were administered post bacterial challenge. Mouse survival was monitored daily until up to day 8.

In a further experiment the test system is Kp8561 Klebsiella. Kind of experiment: bacteremia model, KPE33 synergy with meropenem. It counts as in vivo, Klebsiella pneumoniae. The settings on record: antibody 2.5 mpk, meropenem 5 mpk, post challenge. How it is done:
as §1, §2

The test system of experiment [3] is K. pneumoniae strain Kp8045 (O1:K1). Kind of experiment: intranasal lung infection model, lung bacterial burden. It is filed as in vivo, Klebsiella pneumoniae. The settings on record: C57BL/6 mice, 15 mg/kg, CFU 48 hours post infection. The protocol:
The ability of anti-O1 antigen antibodies to reduce organ burden was tested in bacterial infection models. In these experiments, C57BL/6 mice were received from Jackson laboratories and maintained in a special pathogen free facility. All animal experiments were conducted in accordance with IACUC protocol and guidance. K. pneumoniae strains were grown on agar plates overnight and diluted in saline at proper concentration. The inoculum titer was determined by plating a serial dilution of bacteria onto agar plates prior to and post challenge.
Antibodies and controls at 15 mg/kg were administered 24 hours prior to bacterial infection. C57BL/6 mice were inoculated with 1e4 CFU Kp8045 (O1:K1) bacteria in 40 μl saline intranasally to induce pneumonia. The lung bacterial burden was measured by plating lung homogenates onto agar plates to determine CFU 48 hours post infection.

The test system of experiment [4] is K. pneumoniae and S. aureus SF8300 (USA300). Nature of the experiment: K. pneumoniae and S. aureus co-infection pneumonia model. It is filed as in vivo, Klebsiella pneumoniae and Staphylococcus aureus. The settings on record: C57BL/6 mice, 0.5 mL ip, 24 hours prior to co-infection. The protocol:
In order to evaluate the efficacy of anti-O1 antigen antibodies in co-infection, female 7-8 week old C57BL/6 mice were briefly anesthetized in 3% Isoflurane and 50 μl of bacterial suspension was placed on the nares. Animals were inoculated with 5e7 CFU S. aureus SF8300 (USA300) alone or in combination with 1.5e2 CFU of K. pneumoniae and monitored up to 7 days for survival studies. For organ burden studies, lungs and spleens were harvested at 24 or 48 hours post challenge as described in Example 5 above. For protection studies, mice were passively immunized (0.5 mL, ip) with KPE33 or control mAb before lethal bacterial challenge. All data were plotted in Prism.

Experiment [5] relates to K. pneumoniae carbapenem-resistant (CRE) strain Kp1131115 (O1). Nature of the experiment: acute lethal pneumonia model, survival. It counts as in vivo, Klebsiella pneumoniae. The settings on record: C57BL/6 mice, antibody one hour post bacterial challenge, vs human IgG1 control (R347). How it is done:
In an acute pneumonia model, C57BL/6 mice were inoculated intranasally with 1e4 to 1e8 CFU of the multi-drug resistant Klebsiella pneumoniae carbapenam resistant (CRE) clinical isolate strain KP1131115 (O1). Anti-K. pneumoniae monoclonal antibody KPE33 at 0.2, 1, and 5 mg/kg and human IgG1 control antibody at 5 mg/kg were given one hour post bacterial challenge (therapeutic dosing). Mouse survival was monitored daily until up to day 8.
Additionally, in an acute pneumonia model, C57BL/6 mice were inoculated intranasally with 1e4 to 1e8 CFU of the multi-drug resistant Klebsiella pneumoniae carbapenam resistant (CRE) clinical isolate strain KP1131115 (O1). Anti-K. pneumoniae monoclonal antibodies […] and […] at 0.2 and 1 mg/kg and human IgG1 control antibody at 5 mg/kg were given one hour post bacterial challenge (therapeutic dosing). Mouse survival was monitored daily until up to day 8.
KPE33 or KPE33-V-2016 were administered at a dose of 6 mg/kg 1 hour post bacterial infection with a Klebsiella pneumoniae carbapenam resistant strain.

Experiment [6] has as its system clinical Klebsiella strains. Kind of experiment: western blot binding to clinical isolates. How it is done:
In order to determine if anti-O1 antigen antibodies bind to clinically relevant Klebsiella strains, the binding of KPE33 to clinical isolates was determined by western blot assay. The ability of KPE33 to bind to all of these strains as well as its ability to protect against four different strains in vivo indicate that KPE33 can kill many clinically relevant Klebsiella strains.
In general terms: A western blot detects proteins with antibodies after separation by electrophoresis.

“Also recorded” adds a separate entry of the source.

B1: 54H7: mouse hybridoma anti-O1 antigen antibody (Ms IgG3), VH SEQ ID NO:47, VL SEQ ID NO:48 (antibody, V domains shown)
VH: QVHLQQPGSELVRPGASVTLSCKASGYTFTNYWMQWVKQRPGQGLEWIGNIYPGSGNTNYDEKFRSKATLTVDTSSSTAYMHLTSLTSEDSAVYYCTRNWNFDYWGQGTTLTVSS
VL: DIQMTQSPSSLSASLGERVSLTCRASQDIGSSLNWLQQEPDGTIKRLIYATSSLDSGVPKRFSGSRSGSEYSLTISSLEAEDFVDYYCLQHTDSPYTFGGGTKLELK
modifications: 54H7 VH; 54H7 VL Amino Acid Sequence
On to B1, for which, in the experiment with LPS, the “survival, endotoxemia model” value is reported as “protects mice”. Besides, the “survival, Kp43816 pneumonia, monotherapy” value in experiment [1] is “significant protection”. Besides, in experiment [2], the “serum IL-6” value is reported as “reduces”, the “serum KC (CXCL1)” value is “reduces” and the “serum TNF-alpha” value is recorded as “reduces”.

B2: KPE33: human anti-K. pneumoniae O1 antigen antibody, VH SEQ ID NO:8, VL SEQ ID NO:9, isolated as IgG2 from donor #262 (antibody, V domains shown)
VH: EVQLVESGGALVQPGGSLRLSCAVSGFIFDDYAIHWVRRAPGKGLEWVSGIAWKSGATNYADSVKGRFAISRDNSKKSMYLQMNSLGTEDTALYYCTRRRASGDDTFYYFDYWGQGTLVTVSS
VL: EIVLTQSPATLSLSPGERATLSCRASQNVNTNLAWYQQRPGQSPRLLIYDASTRAAGLPARFSGSGSGTDFTLTISSLEPEDFAVYYCQQCTNWRYTFGQGTKLEIK
modifications: KPE33 VH Amino Acid Sequence; KPE33 VL Amino Acid Sequence
On to B2, for which, in the experiment with Kp8045 Klebsiella, the “survival, combination with meropenem, pneumonia Kp8045” value was “significant synergy and better protection than monotherapy”. Moreover, the “survival, combination with meropenem, bacteremia Kp8561” value in the experiment with Kp8561 Klebsiella was “significant synergy and better protection than monotherapy”. Further, in [3], the lung bacterial burden entry is “significantly reduced organ burden”. Further, the “survival in lethal co-infection” value in [4] is “rescued the mice”. In addition, the “survival, lethal pneumonia Kp1131115” value in [5] is on record as “protect mice from lethal bacterial challenge; also recorded: dose dependently enhanced survival”. For the same molecule, the “binding to clinical isolates” value in experiment [6] (Table 8) is “binds not only to a large and diverse group of clinical strains, but also to antibiotic resistant clinically relevant strains”. In experiment [6] (clinical isolates listed in Table 8 (rows 1-36 CRE, rows 37-134 ESBL, rows 135-184 antibiotic-susceptible)), the “binding of KPE33 to clinical Klebsiella strains” value was “Summary of clinical Klebsiella strains which KPE33 binds”.
